Test results reported in publication PMC10639053.

Columns and labels:
[1] = test system: BRCA1 deltaExon11;BARD1 full length (human;human); test: MST; conditions: Kd in Table S2, not in material, EMSA: 50 mM Tris pH 7.5, 150 mM NaCl, 0.02% NP40, 0.1 mg/ml BSA, 10% glycerol, 1 mM DTT, 8% sucrose, on ice 1 h, MST: 50 mM HEPES pH 7.5, 150 mM NaCl
[2] = target: unmodified mono-nucleosome (human) (UniProt P0C0S8); test: MST; 5' FAM-labelled nucleosomes (20 nM) with a dilution series of protein (0.122-4000 nM or 0.122-2000 nM), 50 mM HEPES pH 7.5, 150 mM NaCl, 0.1 mg/ml BSA, 10% glycerol, 0.02% NP40, 1 mM DTT, room temperature 30 min; one-site total binding fit
6xHis-MBP–BARD1^425–777 = 6xHis-MBP–BARD1^425–777 (UniProt Q99728); test: MST; conditions: read at the highest titrant concentration (4000 nM 6xHis-MBP–BARD1ARD-BRCTs); 20 nM 5′ FAM-labelled nucleosomes; amplitude-normalised; mean of three …; parent: est. 10; read off a plot
[3] = target: human Flag-BRCA1^ΔExon11:6xHis-FL BARD1 complex, P38398-5;Q99728; test: MST; conditions: read at the highest titrant concentration (2000 nM Flag-BRCA1ΔExon11:6xHis–BARD1); 20 nM 5′ FAM-labelled nucleosomes; amplitude-normalised; mean of three …; parent: est. 14; read off a plot

Substance: unmodified mono-nucleosome
- fold affinity relative to BARD1 ARD-BRCTs (fold affinity vs BARD1 ARD-BRCTs) [1]: 2

Substance: human Flag-BRCA1^ΔExon11:6xHis-FL BARD1 complex (from UniProt P38398-5 1-721; Q99728 1-777)
- affinity relative to BARD1^ARD-BRCTs, fold [2]: 2 fold

Substance: unmodified mono-nucleosome (from UniProt P0C0S8;P33778;P68431;P62805) H2A:E61A; H2A:E91A; H2A:E92A; H2B:E105A
- response (Fnorm [1/1000]) (6xHis-MBP–BARD1^425–777): 1.5
- response (Fnorm [1/1000]) [3]: 5.7
